The text below walks through data of article PMC2888443 (The Journal of Biological Chemistry, 2010).

Assay [1] has as its target HIV integrase N-terminal and catalytic core domains, IN(NTD-CCD)(F185K) (HIV). In words: SEC-MALS.
Assay [2] has as its target LEDGF/p75 integrase binding domain, LEDGF(IBD) (human). In words: SEC-MALS. (In gel filtration, larger molecules generally elute earlier.)
Assay [3] concerns the target HIV integrase, full-length, IN(tetra) (C56S, F139D, F185H, C280S) (HIV). In words: AUC.
For assay [4], the target named is LEDGF/p75 integrase binding domain, LEDGF(IBD) (human). Nature of the assay: AUC.
For assay [5], the target named is LEDGF/p75 C-terminal fragment, LEDGF(Cterm), residues 325-530 (human) (UniProt O75475). Nature of the assay: SEC-MALS.
In assay [6] the target is IN(tetra)·LEDGF(IBD) complex of two IN and one LEDGF(IBD), IN2LEDGF1 (HIV | human). In words: AUC.
The target of assay [7] is T1, LEDGF/p75 C-terminal fragment, LEDGF(Cterm), residues 325-530 (human, UniProt O75475 325-530).
T1 sequence: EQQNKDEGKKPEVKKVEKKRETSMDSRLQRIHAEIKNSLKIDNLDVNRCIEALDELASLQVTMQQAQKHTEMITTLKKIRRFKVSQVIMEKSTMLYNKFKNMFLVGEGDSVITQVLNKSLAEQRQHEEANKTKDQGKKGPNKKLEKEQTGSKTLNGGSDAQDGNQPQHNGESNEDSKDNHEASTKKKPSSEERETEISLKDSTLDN
Nature of the assay: SEC-MALS.

With “HIV integrase N-terminal and catalytic core domains, IN(NTD-CCD)(F185K) (domain or fragment)”, the stoichiometry N in assay [1] is 2; in assay [2] it was 1 IN:LEDGF.

In turn, “HIV integrase, full-length, IN(tetra) (C56S, F139D, F185H, C280S) (enzyme)” yielded a Kd in assay [3] of 9.3 µM. The stoichiometry N in assay [4] and in assay [2] was 2 IN:LEDGF each time.

For the molecule “HIV integrase, full-length, IN(tetra)(D116N) (enzyme)”, the stoichiometry N in assay [5] is 1 IN:LEDGF.

In turn, “IN(tetra)·LEDGF(IBD) complex of two IN and one LEDGF(IBD), IN2LEDGF1” displayed a Kd in assay [6] of 8.9 µM.

B1: HIV integrase, full-length, wild-type (enzyme)
chain: FLDGIDKAQEEHEKYHSNWRAMASDFNLPPVVAKEIVASCDKCQLKGEAMHGQVDCSPGIWQLDCTHLEGKVILVAVHVASGYIEAEVIPAETGQETAYFLLKLAGRWPVKTVHTDNGSNFTSTTVKAACWWAGIKQEFGIPYNPQSQGVIESMNKELKKIIGQVRDQAEHLKTAVQMAVFIHNFKRKGGIGGYSAGERIVDIIATDIQTKELQKQITKIQNFRVYYRDSRDPVWKGPAKLLWKGEGAVVIQDNSDIKVVPRRKAKIIRDYGKQMAGDDCVASRQDED
In the case of B1, the “stoichiometry N” value in assay [7] is 1 IN:LEDGF.

For orientation: stoichiometry N means the number of molecules, sites or subunits per partner or assembly. What is called Kd is a measure of binding affinity in units of concentration.
